Results: a protein production outcome set (Wang et al. 2014)

Test: label from the status in PepcDB records

For “MIHAVAPCCPHAPRTTWEFHLRLLPLATALTLAVAMGVTPAQENRLPDIGSSAGELLTPARQAEYGKMMLAELRNYDYVLDDPLITDWLQTMGTRLGANSDQPQQPFTFFMLRDRQINAFATLGGYVAVNAGLVLTAEREDEVAAVLSHEIAHVTQQHVLRAVERAQRDQIPILLGMLAAVVAAQQAGGNSKGDATMATITSAMGLMQQRQIDYTRSNESEADRLGIRTLARSGYDVDAMAGFFERMSVAMRANEGGYSAPDFLQTHPVTVTRISEAKARAEQMKKNTVVLTTSVPGGSRQERVDPADPSLSEPLSHNGNALLPYALRLPVDALSRGADQQGFDWAKERLRVLSAATPDAAIREYENLRRSAKQGLSDAQRYGLALAKLRNSGGRPSEPVAELSSLLEAHPDNLWLALGLSQAQARVGQREAANARFDALLKQLPNNRAVALTYASALNEQASKESGQRARQVLEPLVHRSSDDPLLQQSYARACELSGDQLRASEAYAEAAFLNGRAEQALIQLEALKKKDLDYVTRARVDARIAAITPTVLELRRQGIRDPDLSTR”, the protein production was “failed”.

In the case of “QQAIADQLLEMILQSQDLHNAYRLVVEGLQRGLGVDRVLLVQNAVFPNRQSRLVAQAIAPARDIMLLDEPCADCRWLHLLGQLPHYGLWTVWEGEGEFVQLDPVQGEFCRTLGIKSLLHLPLVINQRHWGVLSLQYLHQARPWPLEDQQFAQRIAHLFCLGLMKTELWIHCQNHKNALQTVVAEGQ”, the protein production is reported as “failed”.

In the case of “MLNLFILLLERVGLIILIAYILMNINHFKTMMNEREKRRSQWQLIIIFGCFSMISNFTGIQIRGDEIINGTVYNHLDPDASLANTRVLTIGVSGLIGGPFVALAVAVISGMYRVYIGGADAYIYLISSIFIALISGYFGYKAMRANRYPTIVKGACIGGTTEIIQMLCILLFSDNTEHAWTLVKLIAIPMISINSIGTAIFLSIILSTIKQEEETRAIQTHDVLQLANQTLPYFRSGLNEQSAKKAAEIILNLMRVSAVAITNRKDILTHVGVASDHHVAQKAIITNLSKRAIQSGTLKEAYSSEEIGCNHPGCPLEAAIVVPLRVKNDVVGTLKLYFTNKYDVNYSDKQLATGLAEIFSSQLELGQAETQSALIRDAEIKSLQAQVNPHFFFNAINTISALIRIDSEKARELLLQLSQFFRSNLQGARNNTISLEKELQQVESYLSLEQARYPDRFNVSFDIDRTCYGALVPPFAIQILVENAIKHAFKNRKYNNEIIVKAHKAQTGLVISVSDNGHGIPYEKLDKIGKTSVHSESGTGSALENLNRRLDGLFGYEASLQIHSDHQGTQVSCTIPYHNLEEEKIESNHCR”, the protein production is reported as “failed”.

In the case of “MYRAAIPNLFTLGNLYSGFLSIGYASLGYYKSAAILVLIGMMLDSLDGRVARLLRVDSQMGKELDSLADVVTFGAAPAVLMYYTSFSNYGIIGLYIAGLFPLFGAYRLARFNVTPSSTSMKYFTGVPITAAGGLVAFLTLFSHTIPKIVLITVFVTFAFLMVSRIRIPSLKDVPIPRYSIIITLFLVGIIITMYQTGFGNFSVFLFIAIPLYILYMLSQFIRQRPSKKANKEK”, the protein production is reported as “failed”.

For “MDSNWINCPSVFSSSSSSSRRCQSRSDLYLGGGYEDLEGEDDLKAEFICPFCAEDFDIVGLCCHIDEEHPVEAKNGVCPVCTKRNLCLFLDERFYVQRRRRLRRGGYSSTYLALKKELREANLQSLLGGSSSFTSSTNIDSDPLLSSFMFNSPSVNQSANKSATPVTVGNAATKVSIKESLKRDIQEAPLSGEDQEKAKKSEFVRGLLLSTMLEDDF”, the protein production was “failed”.

With “MTRTISRILVTGTSGQLGALVIEELLKKIHASHLIAAARDPKALMAFSRRGVETRLLDYTDQISIEAAFQGVERLLLVSSNVIDQRLVQHRNVIEAAARAGVGLFAYTSLLHADNSSLLLAKDHVQTEALLKGSGIPYVLLRNGWYTENYTDSIGAALVHGAVLGSAGTGRIAAATRADYAAAAAAILASDVDQAGRTYELAGDEAFTMPEYAAEIAQQSGKPVIYRDLPEAEYAAILMQVGLPESFAAILAQSDIGASQGALFDDSHQLSTLIGRPTTPLREVVAKALSAVR” the protein production was “failed”.

With “MGREFLDLFEQWAESYDQSVEGYDEQYRDVFAGYDRILSTVADKAGQVVLEFGIGTGNLTKKLLERGKTVYGIEPSAPMRKKAAEKLGERAVIMDGDFLQFPLPPEPIDTIASTYAFHHLTDAEKDEAIAKYSQLLHSGGKIVFADTAFRDKEAFRQTVEAARARGFHDLADDLEREYYTTLDVLASLFANHGFSVSFAQQNAFVWVMEAVKQTTLEHHHHHH” the protein production was “not failed”.

In the case of “MKRIFSLLEKTWLGAPIQFAWQKTSGNYLAVTGADYIVKIFDRHGQKRSEINLPGNCVAMDWDKDGDVLAVIAEKSSCIYLWDANTNKTSQLDNGMRDQMSFLLWSKVGSFLAVGTVKGNLVIYNHQTSRKIPVLGKHTKRITCGCWNAENLPALGGEDKMITVSNQEGDTIRQTQVRSEPSNMQFFLMKMDDRTSAAESMISVVLGKKTLFFLNLNEPDNPADLEFQQDFGNIVCYNWYGDGRIMIGFSCGHFVVISTHTGELGQEIFQARNHKDNLTSIAVSQTLNKVATCGDNCIKIQDLVDLKDMYVILNLDEENKGLGTLSWTDDGQLLALSTQRGSLHVFLTKLPILGDACSTRIAYLTSLLEVTVANPVEGELPITVSVDVEPNFVAVGLYHLAVGMNNRAWFYVLGENAVKKLKDMEYLGTVASICLHSDYAAALFEGKVQLHLKAKSWMLTKNVRLGFSQQWMISAVSYAMP”, the protein production is reported as “failed”.

With “MSDAAISCSWKPFFRELATRLLDYEDRQPELLAALRDASISINHDEGEPLREVDPFTFFSLVLKHTSDATALPLFARVGAALGVQAPSPTDLIGVPWSNPMNAWFFAYRSQRQPGDVPLLWRLARQAVAGILDAQTFEDALKIRKVALPKLTQGLFWLNPERFLALNAVNVPYLQARGLQAAGQVQTLAEYETVLEAAHKLNPDFAALSHRAWLNSQTAALEGNHFPFARYQADAQEFAGDKVKGNLVLDRRYAPLLLDLMAGEWETLKPSRSPYSGREQLAVKVALGGGVKTDGGAFARALLFADDSGFEYVPFSAGLTLEAGLPDGRGDGPRQALQEPARQHTLLTALNAPLPAGLEATLTLNTDFGALFLLPLGPGREAEAAQQLQQYMSGVGRSRRLRVGLSLLPEHLESDKFPELLDAALTYLDALVDLLDGLMRPSEETSTEEIGVPGTRPVAPTPAAFVPVPGVPLNQILYGPPGTGKTYRVVDEALSVLDPAFLSAHPGSEGRAARKARYDELAAQGQISFVTFHQSFGYEDFIEGIKPVMSGGALSYVLQDGVFLEAVRSAGGALAPAAPEAGPSTETQPLVRPDAQVWRMYIDGTAPVSRIRDLSLGRGELRMGSYGKPPRDLTQAGVEDLSGRQLLFKESVRVGDLMLLATAADRIGAVGVVTGDYRFDPHSDPTFATDYAHTRSVKWLAQDLNVGATETLGKSFAPPTLQRVADVTPAQVLQALGVSTAGGETAHAPTPRPHVLIIDEINRGNISKIFGELITLLESGKRTGAPEALTVTLPLSRRPLSVPQSLYVIGTMNTADRSLTLLDAALRRRFVFRPVWPQPEVLPVLDLGGTALDLRKFLHVINDRIERLLSREQVIGHAYLLGLPATLGGVSSALRERILPLLEEYFFEDWSKIREVLGDESKAEALQFIHRSGSGPELRYRLNPEAFENIEAFTGVYAGVSDQDFPFDA” the protein production was “failed”.

With “MSNEDSLPPFTLFGLDDVENYGLVTEADNSLPLDIHNQVFQLVEKGNQSFKESRFEEAISSYSKANSIKPLDPIVLGNRSAAYIRFGQYLKQRSASISEYKPLNGFDMSMLGELALKDADKLMSLQSSLVKSYITKACALMLLERYEVARDTILSGLQIDPFSGPLRSNLQELEKVMPNSMRKTHGMAERSDDFDCTVCLKLLYEPATTPCGHTFCRSCLFQSMDRGNKCPLCRTVIFMTPRTCAVSVTLNNIIEKNFPEEYAERKSEQDTLVHLGNESMPLFVMDVIIPCQKLSLHIFEPRYRLMVRRIMEGNHRMGMVALDSATGSPVDVACEVEITECDPLPDGRFVLELESHRRCRIVKAWDQDGYRVAEVEWVKDIPPQSEQGKADLRELTTSAASFARSWLDRAKEAARQGDRRRLEILLNVESMIPTPQDPERFSFWLATLTDRRPSERLELLRLQDTGEVLDYRLVQIARQISLFHQSLSFDC” the protein production was “failed”.

In the case of “MDQNVPISKKLWNIVRFLLYMIRKGVSKNKLIADFNATLKRGKNLMFHQRRRVHAGSTASAALNATSATASSRQEYEFSCSNTPNYSFPFSNMAFMRKKSHNNLFTCGQTPQTLDDDVAAARAVLELLNGVGEKGNVTPADLTVALSPYFPGFGQTPLVRPLRVTDSPFPLTPENGDVANGHVDKAADDFIKKFYKNLNQQKKMIEFS”, the protein production is reported as “failed”.

With “SAQDEEDRVLIHFNVRDIKIGPECHDVQPPEGRSRDGLLTVNLREGGRLHLCAETKDDALAWKTALLEANSTPVRVYSPYQDYYEVVPPNAHEATYVRSYYGPPYAGPGVTHVIVREDPCYSAGAPLAMGMLAGAATGAALGSLMWSPCWF” the protein production was “failed”.

In the case of “MNDRSLGILLMFLTVIFWGISFVATKIILVYIPPITLGFIRFAIAAMILIVLIRNFPSYSKKDFLNLVLAGFLGITSYFLFENVALEYTTATNAALIAATVPIFYLMVSDLVERRIPSKIQYFGSLIGLFGVSILILNGRLILELNPIGDLLMIGAVLSWVLYTFVIQKLEKHDNLTVTRDITLIGVLLSVPFMLLEFGSKGVLDLGVFLNPPLTFAVLYLAIFCSAIAYLFWNMSIRLAGASTTNNGIYFIPIVAMIADSIILKNIPNIYATIGAVLVLFGVYISEKGDKLKIKL”, the protein production is reported as “failed”.

With “MAQKENSYPWPYGRQTAPSGLSTLPQRVLRKEPVTPSALVLMSRSNVQPTAAPGQKVMENSSGTPDILTRHFTIDDFEIGRPLGKGKFGNVYLAREKKSHFIVALKVLFKSQIEKEGVEHQLRREIEIQAHLHHPNILRLYNYFYDRRRIYLILEYAPRGELYKELQKSCTFDEQRTATIMEELADALMYCHGKKVIHRDIKPENLLLGLKGELKIADFGWSVHAPSLRRKTMCGTLDYLPPEMIEGRMHNEKVDLWCIGVLCYELLVGNPPFESASHNETYRRIVKVDLKFPASVPTGAQDLISKLLRHNPSERLPLAQVSAHPWVRANSRRVLPPSALQSVA” the protein production was “failed”.

For “TSIRQGASNVICAYRRDEENMPGSRREVKNAKEEGVKFMFNLQPLGIEVDAYGKVSGVKVVKTALGEPDDAGRRRPEPVEGSEHVLPADAVIMAFGFQPHQMDWLTPFNVELDQWGRIKAPNNQEFQYQTSNEKIFAGGDAVRGSDLVVTAIDEGRKAAEGILDYLDV”, the protein production was “failed”.

In the case of “MTALLTRVWACTLCQAELPFPPKPILQASSQARILIAGQAPGVKTHHKGIPFDDASGERLRAWLNVSREQFYDPALFAIVPMGFCFPGNIERKGKKQGDKPPRPECAATWHKALLALMPNIELVIVLGQYAMDYHLSRLLMDNMHKNRGFNSTPLAAAHTIGKATSNKKITLTQAVEQWPLYWPQLMVMPHPSPRNNLWLKQHPEFEQHLIPTLRSRISSLLT”, the protein production is reported as “failed”.

With “MGSTHHHHHHSSGRENLYFQGHMEEEMQRHIKLTPSQTTPVVLVVGDPGRVDKVKMLCDSYVDLAYNREYKSVECTYKGQKFLCVSHGVGSAGCAICFEELMNNGAKVIIRAGSCGSLQPTQMKRGDICICNAAVREDRVSHLMIYSDFPAVADFEVYDTLNKVAQELEVPVFNGISLSSDLYYPHKIIPTRLEDYSKANVAVVEMEVATLMVMGTLRKVKTGGIFIVDGCPLKWDEGDFDNNLVPEKLENMIKISLETCARLAKKY” the protein production was “not failed”.

For “MSKQIPVQDVTPPAKGDTNNNDLYAKREKIYTRAFTGIFRRLRMVGGAALFLLYFGTVWLNWSGRQAVWWDLPERKFYIFGATFWPQDFMLLSWLLIVCAFGLFFITVFAGRVWCGYTCPQSVWTWIYMWCEKVTEGDRNQRIKLDKAPMSGNKLLRKTAKHSLWLLIGLVTGLTFVGYFSPIRELIPELLTGQADGWAYFWVGFFTLATYGNAGWLREQVCIYMCPYARFQSVMFDKDTLIVSYDPRRGEKRGPRKKSLDYKAQGLGDCIDCTMCVQVCPTGIDIRDGLQIECIGCAACIDACDSIMEKMNYPKGLISYTTEHNLNGQKTHLARPRLIGYAIALVLMISALITAVVLRPLVGFDVSKDRVLYRENELGRIENVYSLKIMNKDQQDHTYILGAKGLEGLTLEGRRELKVAAGDILNLPMELSIEPEKLPSTTNEIVFTIESADDPSIHKEAKSRFIGPRTR”, the protein production was “failed”.
